Experiments:
[1] = system: capsaicin-evoked nocifensive behavior; assay: Eye-wipe test (corneal capsaicin); assay type: in vivo, rat
Protocol: To whether this effect has relevance to capsaicin-induced nociception in the whole animal, corneal wipe tests were performed. In this test, corneal application of capsaicin induces a brief nocifensive behavior in the trigeminal region of awake animals (Price et al., 2004; Neubert et al., 2005; Tender et al., 2005). The cornea is a specialized tissue innervated by trigeminal sensory neurons including TRPV1 positive C-fibers (Guo et al., 1999). Turning to FIG. 8A, the results of immunohistochemical analysis of corneal cryosections from proestrous females reveal the presence of fibers that stain positive for both PRL-R (green) and TRPV1 (red) (FIG. 8A).
In this test, the effect of PRL pretreatment on capsaicin-induced eye wiping in proestrous rats was examined. PRL (1 μg/ul in saline) or vehicle (40 μl) was applied in the cornea immediately followed by application of 0.01% capsaicin or vehicle (40 μl) and the total time spent grooming the injected eye per 5 min bins was measured by observers blinded to treatment allocation. Data are shown as mean±SEM (n=6/group *=p<0.05 and ***=p<0.001; two-way ANOVA). […] Data are shown as mean±SEM (n=6/group; two-way ANOVA). […] Data are shown as mean±SEM (n=6/group, **=p<0.01; two-way ANOVA). The effect of PRL on capsaicin-mediated nocifensive response was assessed next in male rats, in order to determine whether the influence of PRL-signaling on nociception is conserved between gender. Corneal wipe tests were performed on age-matched male rats essentially as described above. Data in FIG. 8E are shown as mean±SEM (n=6/group, **=p<0.01; two-way ANOVA). Unexpectedly, the capsaicin-mediated nocifensive response profile of male rats is strikingly similar to that of proestrus rats (compare FIG. 8E with FIG. 8B) and estradiol-treated OVX rats (compare FIG. 8E with FIG. 8D), and divergent from that found in control OVX rats treated with vehicle.
Eye-Wipe Test OVX female rats, treated with either vehicle or E2 (5μg/day/10 days), or intact female rats in the proestrous reproductive stage were brought to a quiet, temperature controlled (22-25° C.) behavioral laboratory in individual cages where they were allowed to acclimate for at least 2 h. PRL (1 μg/μl) or vehicle was placed directly onto the right eye in a volume of 40 ul followed by application of 0.01% (40 μl) capsaicin solution as described previously (Price et al. 2004). The resulting behavioral response was measured as time spent grooming or wiping the test eye. The observers were blinded to the treatments and the data were collected in 3 bins of 5 min.

[2] = system: TRPV1; assay: TRPV1 phosphorylation (32P incorporation, immunoprecipitation); assay type: cell-based, rat; conditions: PRL 40 nM 10 min
Protocol: The activity of TRPV1 is dependent upon its phosphorylation status. Hyperphosphorylation of TRPV1 is associated with increased responsiveness to capsaicin (Bhave et al., 2003; Mohapatra and Nau, 2005; Zhang et al., 2005; Mandadi et al., 2006). Since PRL-signaling through PRL-R is known to activate various intracellular kinases pathways, the effect of PRL on TRPV1 phosphorylation status in cultured TG neurons was assessed. Cultured TG neurons were incubated with PRL (40 nM) or vehicle for 10 min in the presence of radioactive phosphate (P^32-orthophosphate). Extracts of the radiolabelled TG cultures were prepared and subjected to immunoprecipated using an antibody that specifically recognizes TRPV1, and the resulting immune complexes were resolved by SDS-PAGE and prepared for immunoblot analysis. The blots were subjected to autoradiography to visualize radiolabelled P^32-TRPV1 and to determine its relative abundance in the presence of PRL. The resolved protein was then immunoblotted using an antibody raised against TRPV1 to ensure that the observed differences in radiolabelled TRPV1 abundance are not due to technical errors (e.g., unequal gel loading). […]
Autoradiography and Western blot results were scanned and quantified using NIH Image 1.62. […]

Molecule | PRL sensitization of capsaicin nocifensive behavior ([1]; OVX female rats treated with estradiol) | TRPV1 phosphorylation status ([2]; TG neurons from OVX rats) | phosphorylation state of TRPV1 ([2]; neurons from intact female rats) | capsaicin-responsiveness (eye wiping) ([1]; OVX female rats, PRL pretreatment) | capsaicin-mediated nocifensive response ([1]; age-matched male rats, PRL pretreatment) | capsaicin-mediated nocifensive behavior (eye wiping) ([1]; proestrous rats, PRL 1 μg/μl 40 μl on cornea, then 0.01% capsaicin)
C[C@]12CC[C@@H]3c4ccc(O)cc4CC[C@H]3[C@@H]1CC[C@@H]2O [estradiol, 17-β-estradiol] | restores PRL sensitization of capsaicin nocifensive behavior | – | – | – | – | –
PRL: Ovine PRL [oPRL-21, BIO] provided by NHPP; prolactin polypeptide hormone (protein, UniProt P01240 31-229, looked up) Prolactin: TPVCPNGPGNCQVSLRDLFDRAVMVSHYIHNLSSEMFNEFDKRYAQGKGFITMALNSCHTSSLPTPEDKEQAQQTHHEVLMSLILGLLRSWNDPLYHLVTEVRGMKGVPDAILSRAIEIEEENKRLLEGMEMIFGQVIPGAKETEPYPVWSGLPSLQTKDEDARHSAFYNLLHCLRRDSSKIDTYLKLLNCRIIYNNNC | – | no observable effect | 150±13% | no change in capsaicin-responsiveness was observed | influences nociceptor sensitization in male rats | significantly increases capsaicin-mediated nocifensive behavior

Reference: patent US7507716B2, “Method for treating pain with prolactin antagonists” (Board of Regents, The University of Texas System, priority 2005, dated 2009)
